# In patent publication US20160264653A1 (published 2016):
# T1: mouse ephrin-A4 homolog (recombinantly expressed, monomeric) (mouse, UniProt O08542 26-175)
# T1 chain: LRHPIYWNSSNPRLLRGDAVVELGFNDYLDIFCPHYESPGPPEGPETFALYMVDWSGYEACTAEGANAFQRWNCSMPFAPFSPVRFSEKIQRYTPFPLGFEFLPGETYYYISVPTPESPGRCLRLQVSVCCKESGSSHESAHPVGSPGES
# T2: human ephrin-A4-His (UniProt P52798 26-170)
# T2 chain: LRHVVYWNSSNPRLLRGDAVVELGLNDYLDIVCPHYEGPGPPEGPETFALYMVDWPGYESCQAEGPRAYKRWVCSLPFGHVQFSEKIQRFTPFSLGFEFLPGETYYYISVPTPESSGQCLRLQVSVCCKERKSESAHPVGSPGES
# Columns and labels:
# [1] = target: T1, mouse ephrin-A4 homolog (recombinantly …); test: label-free interaction analysis
# human ephrin-A4-His [2] = target: T2, human ephrin-A4-His; test: label-free interaction analysis
# mEFNA4-Fc [3] = target: T3, mEFNA4-Fc (mouse;human, UniProt O08542 26-176; P01857 100-330 = IgG part); test: cell surface binding inhibition (flow cytometry); 0.1 ug/ml mEphrinA4-Fc
# mEFNA4-Fc [4] = target: T3, mEFNA4-Fc; test: cell surface binding inhibition (flow cytometry); 1.0 ug/ml mEphrinA4-Fc
# hEFNA4-Fc [5] = target: T4, hEFNA4-Fc (human, UniProt P01857 100-330 = IgG part); test: cell surface binding inhibition (flow cytometry); 1.0 ug/ml hEphrinA4-Fc
# hEFNA4-Fc [6] = target: T4, hEFNA4-Fc; test: cell surface binding inhibition (flow cytometry); 0.1 ug/ml hEphrinA4-Fc
# human ephrin-A4-His [7] = target: T2, human ephrin-A4-His; test: Biacore
# human ephrin-A4-His [8] = target: T2, human ephrin-A4-His; test: ForteBIO
binder,measurement,setting,value
"hSC4.22 (antibody, V domains shown) VH: QVQLVQSGAEVKKPGASVKVSCKASGYTFTGYYIHWVRQAPGQGLEWMGWIYPGNFNTKYNERFKGRVTMTTDTSTSTAYMELRSLRSDDTAVYYCAREDGSPYYAMDYWGQGTSVTVSS VL: DIVMTQTPLSLSVTPGQPASISCRSSQSLVHSNGNTFLYWYLQKPGQSPQLLIYRVSNRFSGVPDRFSGSGSGTDFTLKISRVEAEDVGVYYCFQATHVPWTFGGGTKVEIK",Kd,[1],> 100 nM
same,Kd,human ephrin-A4-His [2],3.8 nM
"E47.3 Ab (antibody, V domains shown) VH: EVQLQQSGPELVKPGASVKISCTASGYTFTYFYMNWVKQSQGKSLEWVGQINPNNGGTAYNHKFRGKTTLTVDKSSNTAFMELRSLTSEDSAVYFCARWVGTHYFDYWGQGTTLTVSS VL: DIVLTQSPASLPVSLGQRATISCRASQSVSSSSYTYIHWYQQKPGQPPKLLINFASNLESGVPARFSVSGSGTDFTLNIHPVEGEDTATYYCQHSWEIPPTFGGGTKLEIK",IC50,mEFNA4-Fc [3],~0.0183 µg/mL
same,IC50,mEFNA4-Fc [4],~0.0217 µg/mL
same,IC50,hEFNA4-Fc [5],1.54 µg/mL
same,IC50,hEFNA4-Fc [6],~0.124 µg/mL
"SC4.31 (antibody, V domains shown) VH: QVQLQQPGAELVRPGASVKLSCKASGYTFTRDWMHWIKQRPGQGLDWIGTIHPYDSETHYNQNFKDKATLTVDKSSSTAYMQLSSLTSEDSAVYYCVTFIKTMVDTYYYAMDYWGQGTSVTVSS VL: not shown",Kd,human ephrin-A4-His [7],11 nM
"E15.3 Ab (antibody, V domains shown) VH: EVQVVESGGDLVKPGGSLKLSCAASGFTFSTYGMSWVRQTPDKRLEWVATISSGGTYTYYPDSVKGRFKISRDNAKDTLYLQMSSLKSEDTAMYYCTRHDPNDGYYFLFAYWGQGTLVIVSA VL: SIGRTQIPKFLPVSAGDRVTMTCKASQSVGNNVAWYQQKAGQSPKLLIYYASNRYTGVPDRFTGSGSGTDFTFTISSVQVEDLAVYFCQQHYSSPLTFGAGTKLELK",IC50,mEFNA4-Fc [3],2.09 µg/mL
same,IC50,mEFNA4-Fc [4],16.7 µg/mL
same,IC50,hEFNA4-Fc [5],20.1 µg/mL
same,IC50,hEFNA4-Fc [6],1.14 µg/mL
"SC4.15 (Murine mAb) (antibody, V domains shown) VH: EVQVVESGGDLVKPGGSLKLSCAASGFTFSTYGMSWVRQTPDKRLEWVATISSGGTYTYYPDSVKGRFKISRDNAKDTLYLQMSSLKSEDTAMYYCTRHDPNDGYYFLFAYWGQGTLVIVSA VL: SIGRTQIPKFLPVSAGDRVTMTCKASQSVGNNVAWYQQKAGQSPKLLIYYASNRYTGVPDRFTGSGSGTDFTFTISSVQVEDLAVYFCQQHYSSPLTFGAGTKLELK",Kd,human ephrin-A4-His [2],2.7 nM
"SC4.15 (antibody, V domains shown) VH: EVQVVESGGDLVKPGGSLKLSCAASGFTFSTYGMSWVRQTPDKRLEWVATISSGGTYTYYPDSVKGRFKISRDNAKDTLYLQMSSLKSEDTAMYYCTRHDPNDGYYFLFAYWGQGTLVIVSA VL: SIGRTQIPKFLPVSAGDRVTMTCKASQSVGNNVAWYQQKAGQSPKLLIYYASNRYTGVPDRFTGSGSGTDFTFTISSVQVEDLAVYFCQQHYSSPLTFGAGTKLELK",Kd,human ephrin-A4-His [7],4.8 nM
"hSC4.15 (antibody, V domains shown) VH: EVQLVESGGGLVKPGGSLRLSCAASGFTFSTYGMSWVRQAPGKGLEWVATISSGGTYTYYPDSVKGRFKISRDNAKNSLYLQMNSLRAEDTAVYYCTRHDPNDGYYFLFAYWGQGTLVTVSS VL: EIVLTQSPGTLSLSPGERATLSCKASQSVGNNVAWYQQKPGQAPRLLIYYASNRYTGIPDRFSGSGSGTDFTLTISRLEPEDFAVYYCQQHYSSPLTFGAGTKLEIK",Kd,[1],3.4 nM
same,Kd,human ephrin-A4-His [2],4.8 nM
"SC4.2 (antibody, V domains shown) VH: QVQLQQSGAELVRPGTSVTLSCKASGYTFTDYEMHWVKQTPVLGLEWIGAFDPETGNTVYNQKFKGKATLTADKSPNTAYMELISLTSEDSAVYYCARGYPAWFGYWGQGTLVTVSA VL: DVVMTQIPLSLPVTLGDQASISCRSSQSLAHTNGNTYLHWYLQKPGQSPKLLIYKVSNRFSGVPDRFSGSGSGTDFTLKISRVEAEDLGVYFCSQDTHVPPTFGGGTKLEMK",Kd,human ephrin-A4-His [8],20 nM
"SC4.22 (Murine mAb) (antibody, V domains shown) VH: QIQLQQSGPELVKPGASVKISCKASGYTFTGYYIHWVKQRPGQGLEWIGWIYPGNFNTKYNERFKGMATLTVDTSSSTAYMQLSSLTSEDSAVYLCAREDGSPYYAMDYWGQGTSVTVSS VL: DVVMTQTPLSLPVSLGDQASISCRSSQSLVHSNGNTFLYWYLQKPGQSPKLLIYRVSNRFSGVPDRFSGSGSGTDFTLKISRVEAEDLGVYFCFQATHVPWTFGGGTKLEIK",Kd,human ephrin-A4-His [2],3.1 nM
"SC4.5 (antibody, V domains shown) VH: QVQLKQSGPGLVAPSQSLSITCTVSGFSLTTYGVDWVRQSPGKGLEWLGVIWGGGSTNYNSALKSRLSISKDNSKSQVFLKMNSLQTDDTAMYYCASDWAYWGQGTLVTVSA VL: DIVMTQSQKFMSTSVGDRVTVTCKASQNVGTNVAWFQQKSGQSPKPLIHSASYRYSGVPDRFTGSGSGTDFTLTITNVQSEDLVAYFCQQYKRYPYTFGGGTKLEIKR",Kd,human ephrin-A4-His [7],0.3 nM
"SC4.22 (antibody, V domains shown) VH: QIQLQQSGPELVKPGASVKISCKASGYTFTGYYIHWVKQRPGQGLEWIGWIYPGNFNTKYNERFKGMATLTVDTSSSTAYMQLSSLTSEDSAVYLCAREDGSPYYAMDYWGQGTSVTVSS VL: DVVMTQTPLSLPVSLGDQASISCRSSQSLVHSNGNTFLYWYLQKPGQSPKLLIYRVSNRFSGVPDRFSGSGSGTDFTLKISRVEAEDLGVYFCFQATHVPWTFGGGTKLEIK",Kd,human ephrin-A4-His [7],3.1 nM
"hSC4.47 (antibody, V domains shown) VH: QVQLVQSGAEVKKPGASVKVSCKASGYTFTYFYMNWVRQAPGQGLEWVGQINPNNGGTAYAQKFQGRVTMTRDTSTSTVYMELSSLRSEDTAVYYCARWVGTHYFDYWGQGTTLTVSS VL: EIVLTQSPATLSLSPGERATLSCRASQSVSSSSYTYIHWYQQKPGQAPRLLINFASNLESGIPARFSGSGSGTDFTLTISSLEPEDFAVYYCQHSWEIPPTFGGGTKLEIK",Kd,[1],> 100 nM
